From patent US20230212268A1 (UNM RAINFOREST INNOVATIONS, published 2023) come the findings set out here.

For test [1], the target named is T1, recombinant TAFV glycoprotein (TAFV (Tai Forest virus), UniProt Q66810 33-650).
T1 sequence: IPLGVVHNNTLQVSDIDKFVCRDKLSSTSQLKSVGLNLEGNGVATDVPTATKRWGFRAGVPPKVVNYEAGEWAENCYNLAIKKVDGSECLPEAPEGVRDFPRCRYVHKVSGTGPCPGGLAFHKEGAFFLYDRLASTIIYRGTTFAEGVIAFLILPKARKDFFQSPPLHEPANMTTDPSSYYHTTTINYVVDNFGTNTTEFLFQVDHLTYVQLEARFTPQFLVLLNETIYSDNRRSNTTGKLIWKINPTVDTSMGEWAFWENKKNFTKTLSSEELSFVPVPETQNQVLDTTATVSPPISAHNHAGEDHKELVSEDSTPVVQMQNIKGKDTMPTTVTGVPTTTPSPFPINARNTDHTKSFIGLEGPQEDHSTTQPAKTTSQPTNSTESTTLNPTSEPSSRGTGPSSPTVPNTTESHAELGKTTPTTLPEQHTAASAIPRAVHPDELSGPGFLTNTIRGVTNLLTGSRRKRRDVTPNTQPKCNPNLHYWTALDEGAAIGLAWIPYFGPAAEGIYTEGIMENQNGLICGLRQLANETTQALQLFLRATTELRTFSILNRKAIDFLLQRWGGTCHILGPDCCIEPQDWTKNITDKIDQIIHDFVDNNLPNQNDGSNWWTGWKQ
The test can be described thus: ELISA dose response, GP coated. (In an ELISA, binding on a coated surface is turned into a signal by an enzyme label.)

For test [2], the target named is recombinant BDBV glycoprotein (BDBV (Bundibugyo ebolavirus)). Put plainly: ELISA dose-response fit, reference scFv22-1.
Test [3] shares this target. The test can be described thus: maximal binding from ELISA dose-response fit.
Test [4] shares this target. Put plainly: ELISA dose response, GP coated.

Several values for one entry are separate records, joined by “and”; a condition that tells them apart may be missing. Equal values may be shown once.

What is called EC50 is the concentration giving half of the maximal effect.

B1: EbovGPscFv4-2 (scFv)
scFv: MAWSHPQFEKTGSGGAELVKSGASVKLSCTASGFNIKDDYMHWVKQRPEQGLEWIGWIDPENGDTEYASKFQGKATITADTSSNTAYLQLSSLTSEDTAVYYCTTYYYGSAWFAYWGQGTLVTVSAGGGGSGGGGSGGGGSGGGGSASLSVSVGETVTITCRASGNIHNYLAWYQQKQGKSPQLLVYNAKTLADGVPSRFSGSGSGTQYSLKINNLQPEDFGSYYCQHFWSTPYTFGGGTKLEIKRADAAPTVSIFPPSSEQLTSGGASVVCFLNNFTHCQELQQDECS
Take B1: the EC50 is < 9 µg/mL and 6.95 µg/mL in test [1]; 8.19 µg/mL in test [4]. Moreover, in test [2], the fold affinity against scFv22-1 amounted to 2 fold. Moreover, in test [3], the Bmax signal (relative absorbance units) came out at 220000.
